Experimental data published in the supplement of paper PMC7125110.
± gives the standard error. Fewer inactive variants are shown than the library holds.

B1: glmS ribozyme (parent)
chain: AUAAAAGCGCCAGAACUACAGAAAUGUAGUUGACGAGGAGGAGGUUUAUCGAAUUUUCGGCGGAUGCCUCCAAA

Tests used:
Details in all cases: with glucosamine-6-phosphate
[1] = variants of: B1; assay: self-cleavage kobs at 40 uM GlcN6P; higher = faster cleavage; RNA array
How it was run: (§1)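 Weighted Michaelis–Menten fits across concentrations supplied kcat and KM, based on kobs from one- or two-exponential decay fits to normalised per-tile medians. The data came from barcoded ribozyme variants transcribed in situ by E. coli RNA polymerase on sequenced MiSeq chips and tracked at 37 °C by a hybridised Cy3 probe. Glucosamine-6-phosphate (40 μM to 10 mM) in HEPES/KCl/Mg(OAc)2 buffer was flowed in.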

[2] = variants of: B1; assay: self-cleavage kobs at 160 uM GlcN6P; higher = faster cleavage; RNA array
How it was run: as §1

[3] = variants of: B1; assay: self-cleavage kobs at 640 uM GlcN6P; higher = faster cleavage; RNA array
How it was run: as §1

[4] = variants of: B1; assay: self-cleavage kobs at 10000 uM GlcN6P; higher = faster cleavage; RNA array
How it was run: as §1

[5] = variants of: B1; assay: self-cleavage kobs at 2500 uM GlcN6P; higher = faster cleavage; RNA array
How it was run: as §1

AUAAAAGCGACAGAACUACAGAAAUGUAGUUGACGAGGUGGAGGUUUAUCGAAUUUUCGGCGGAUGCCUCCAAA
self-cleavage kobs at 40 uM GlcN6P [1]: < 1e-05 s⁻¹
self-cleavage kobs at 160 uM GlcN6P [2]: < 1e-05 s⁻¹
self-cleavage kobs at 640 uM GlcN6P [3]: < 1e-05 s⁻¹
self-cleavage kobs at 10000 uM GlcN6P [4]: < 1e-05 s⁻¹

AUAAAAGCGCCAGAACUACAGAAAUGUAGUUGACGAGGAGCAGGAUUAUCGAAUUUACGGGGGAUGCCUCCAAA
self-cleavage kobs at 40 uM GlcN6P [1]: < 1e-05 s⁻¹
self-cleavage kobs at 10000 uM GlcN6P [4]: < 1e-05 s⁻¹

AUAAAAGCGCCAGAACUACAGAAAUGUAGUUGACGAGGAGGAGGUUUAUCGAAGUUUCGGCGGAUGCCUCUAAA
self-cleavage kobs at 40 uM GlcN6P [1]: 0.00109 ± 0.00015 s⁻¹
self-cleavage kobs at 160 uM GlcN6P [2]: 0.00194 ± 0.00038 s⁻¹
self-cleavage kobs at 640 uM GlcN6P [3]: 0.00857 ± 0.00098 s⁻¹
self-cleavage kobs at 2500 uM GlcN6P [5]: 0.0283 ± 0.0078 s⁻¹
self-cleavage kobs at 10000 uM GlcN6P [4]: 0.0636 ± 0.013 s⁻¹

AUAAAAGCUCCAGAACUACAGAAAUGUAGUAGAUGAGGAGGAGGUUUAUCGAAUUUUCGGCGGAUGCCUCCAAA
self-cleavage kobs at 40 uM GlcN6P [1]: < 1e-05 s⁻¹
self-cleavage kobs at 160 uM GlcN6P [2]: < 1e-05 s⁻¹

AUAAAAGCGCCAGUACUACAGAAAUGUAGUUGAGGAGGAGGAGGUUUAUCGAAUUUUCGGCGGAUGCCUCCAAA
self-cleavage kobs at 40 uM GlcN6P [1]: < 1e-05 s⁻¹
self-cleavage kobs at 160 uM GlcN6P [2]: < 1e-05 s⁻¹
self-cleavage kobs at 640 uM GlcN6P [3]: < 1e-05 s⁻¹
self-cleavage kobs at 10000 uM GlcN6P [4]: < 1e-05 s⁻¹

AUAAAAGCGCCAGAACUACAGAAAUGUAGUUGACGAAUAGGAGGUUUAUCGAAUUUUCGGCGGAUGCCUCUAAA
self-cleavage kobs at 40 uM GlcN6P [1]: < 1e-05 s⁻¹

AUAAAUGCGCCAGAACUACAGAAAUGUAGUCGACGAGGAGAAGGUUUAUCGAAUUUUCGGCGGAUGCCUCCAAA
self-cleavage kobs at 40 uM GlcN6P [1]: < 1e-05 s⁻¹
self-cleavage kobs at 10000 uM GlcN6P [4]: < 1e-05 s⁻¹

AUAAAAGCGCCAGAACUACAGAAAUGUAGUUGACGAGGAGGUGGUUUAUCGAAUUCUCGUCGGAUGCCUCCAAA
self-cleavage kobs at 40 uM GlcN6P [1]: < 1e-05 s⁻¹

AUAAAAGCGCCAGAACUACAGAAAUGUAGUUGAGGAGGAGGAGGUUUAUAGAGUUUUCGGCGGAUGCCUCCAAA
self-cleavage kobs at 40 uM GlcN6P [1]: < 1e-05 s⁻¹

AUAAAAGCGCCAGAACUACAGAAAUGUAGUUGUCGAGGAGGAGGUUUAUCGAAUUUUCGGCGGACGCCUCCAAA
self-cleavage kobs at 40 uM GlcN6P [1]: < 1e-05 s⁻¹
self-cleavage kobs at 160 uM GlcN6P [2]: < 1e-05 s⁻¹
self-cleavage kobs at 640 uM GlcN6P [3]: < 1e-05 s⁻¹

AUAAAAGCGUCAGAACUACAGAAAUGUAGUUGACGAGGAGGAGGUUUCUCGAAUUUUCGGCGGAUGCCUCCAAA
self-cleavage kobs at 40 uM GlcN6P [1]: < 1e-05 s⁻¹
self-cleavage kobs at 160 uM GlcN6P [2]: < 1e-05 s⁻¹
self-cleavage kobs at 640 uM GlcN6P [3]: < 1e-05 s⁻¹
self-cleavage kobs at 2500 uM GlcN6P [5]: < 1e-05 s⁻¹
self-cleavage kobs at 10000 uM GlcN6P [4]: < 1e-05 s⁻¹

AUAAAAGCGCGAGAAAUACAGAAAUGUAGUUGACGAGGAGGAGGUUUCUCGAAUUUUCGGCGGAUGCCUCCAAA
self-cleavage kobs at 40 uM GlcN6P [1]: < 1e-05 s⁻¹
self-cleavage kobs at 10000 uM GlcN6P [4]: < 1e-05 s⁻¹

AUAAAAGCGCUAGAACUACAGAAAUGUAGUUGACGAGGAGGAGUUUUAUCGAAUUUUCGGCGGAUGCCUCCAAA
self-cleavage kobs at 40 uM GlcN6P [1]: < 1e-05 s⁻¹
self-cleavage kobs at 160 uM GlcN6P [2]: < 1e-05 s⁻¹
self-cleavage kobs at 640 uM GlcN6P [3]: < 1e-05 s⁻¹
self-cleavage kobs at 2500 uM GlcN6P [5]: < 1e-05 s⁻¹

AUAAAAGCGCCAGAACUACAGAAAUGUAGUUGCCGAGGAGGAGGUUUAUCGAAUUUUCGGCGGAUGCCUCGAAA
self-cleavage kobs at 40 uM GlcN6P [1]: < 1e-05 s⁻¹
self-cleavage kobs at 2500 uM GlcN6P [5]: < 1e-05 s⁻¹
